One substance from patent publication US20200206304A1, “METHODS AND COMPOSITIONS FOR EFFICIENT DELIVERY THROUGH MULTIPLE BIO BARRIERS” (Cedars-Sinai Medical Center, priority 2017, published 2020) can be followed below.

Read-outs that look alike come from different tables or passages of the source.

For data set [1] the following is noted: sagittal sinus, 0.068 μmol/kg.
Data set [2] concerns blood-brain barrier (BBB). The following applies: dose 8×. On the procedure:
AD-Mouse models: 6-8 month old […] (B6.Cg-Tg (APPswe/PS1ΔE9) 85Dbo/J hemizygous) mice were obtained from Jackson Laboratories. Mouse maintenance and experimental procedures followed the guidelines established by the Cedars Sinai Institutional Animal Care and Use Committee (IACUC Protocol #7416). Three to four mice of each sex were used for each experiment. Nanoconjugates were dissolved freshly in PBS (pH 7.4) prior to each experiment and injected intravenously (i.v.) into the lateral tail vein. […] Mice were anesthetized with isoflurane beforehand and their tails were briefly warmed to facilitate injections. The drug injection volume was kept constant at 150 μL. After each injection, mice were promptly returned to their cages. Brains were collected and preserved in OTC for immunostaining.
The brains were harvested and a 14 μm thick slices which were fixed and stained with DAPI to envision the nuclei
A comparison with normal brain was beneficial for understanding of the development of Alzheimer's disease.

The target of data set [3] is T1, Aβ plaque (Homo sapiens, UniProt P05067).
T1 construct: tissue Jackson Laboratories; host or cells: brain of 6-8 month old APPswe/PS1ΔE9 transgenic mice, plaques labelled in vivo after iv injection and counterstained on sections
Kind of data set: Percentage of total plaques labeled by mini nanodrugs in AD mice. The note with it: injected dose 8X (0.55 μmol/Kg). Format: in vivo,  (B6.Cg-Tg (APPswe/PS1ΔE9) 85Dbo/J hemizygous) mice. On the procedure: Slides were air dries and fixed using freshly diluted 2% PFA for 5 minutes. The PFA was washed 3 timed with PBS, and brains were covered with 70% EtOH for 5 minutes before washing with dH2O for 2 minutes. 1× Amylo-Glo (Biosenses, #TR-300-AG 100×, diluted with PBS) was then added for 10 minutes. The slides were then washed with PBS (5 minutes) and dH2O (15 seconds) and mounted (Fluoromount-G, No DAPI, Invitrogen), and stored at 4° C. prior to imaging.
Brains were collected and preserved in OTC for immunostaining.

Data set [4] relates to Brain (other hemisphere). The following applies: 2 h, PBS background subtracted.
Data set [5] relates to neurons and astroglia. The note with it: mouse, in vivo. On the procedure:
Neuronal and glial counterstaining: In FIGS. 27A-27C, brain tissue from drug-injected mice was counterstained to determine if our nanoconjugates are taken up by neurons or glia. Cryosections ([…]) were air-dried for 10 min, fixed with 2% paraformaldehyde for 5 min, and then rinsed three times with PBS. […] The antibodies anti-Neun (Abcam, Cambridge, Mass., USA; AB104225) and anti-GFAP (Neuromics, Edina, Minn., USA; C1122102) were then diluted 1:500 in PBS-T and tissue sections incubated simultaneously with antibody solutions overnight at 4° C. in a humid chamber. Tissue sections were then washed five times with PBS-T and incubated in appropriate secondary antibody diluted 1:250 in PBS-T, for 2-4 h. After five washes in PBS at room temperature, sections were mounted between coverslips in Fluoromount-G with DAPI.
To this end, after systemic injection of our D-conjugates we counterstained brain tissue sections of hippocampus and cortex with anti-Neun to label neurons, and with anti-GFAP to label astroglia (FIGS. 27A-27C) and inspected the stained sections for red fluorescent particulates. […] Positive neurons and glia cells were counted after systemic injection of conjugates containing D1, D3, AC189 peptides, and of a control PBS (FIGS. 27A-27C).

The subject of data set [6] is brain cells. The following applies: cortex. Here is the method:
For the particulate fluorescence analysis, images were converted to binary images, and then 5 ROIs 20*20 μm^2 were drawn per image. The area of each particle on the ROI was measured using the Image) particle analysis tool, where each particle was measured separately. Sizes were then summarized, sorted, and further analyzed using Minitab18 software (Minitab, Inc, State College, Pa., USA). Particulate areas observed between different conditions were compared via a one-way ANOVA combined with post-hoc Tukey tests to test differences between each experimental group.
A more reliable method to separate the particulate from the cellular fluorescence was reasoned to be by adjusting the levels of the image and converting it to a binary image, allowing the detection of only particulates eliminating interference of the diffused background. FIGS. 29A-29D illustrate intracellular fluorescence of mini nanodrugs.
Each ROI was converted to binary (black and white) image and the area and number of particles were quantified. 3 images per brain area were tested for 3 mice per group.
The particle content (example of ROI in FIG. 29A) then was measured. The average size of the particulate fluorescence is a proxy to estimate the intracellular load of fluorescent nanoconjugates following their injections. An example of such an analysis is shown in FIG. 29A: the yellow squares indicate regions of interest that were used to quantify particulate fluorescence. FIGS. 29B-29C summarize the average size of the intracellular fluorescence particles in the cortex ([…]), midbrain (FIG. 29C), and the hippocampus (FIG. 29C).

Data set [7] can be described thus: Dynamic light scattering, hydrodynamic diameter and PDI. It is filed as physicochemical. The following applies: DLS in PBS, conjugates without attached rhodamine. On the procedure: Dynamic Light Scattering: Synthesized conjugates were characterized using a Zetasizer Nano ZS90 (Malvern Instruments, Malvern, UK). Ten microliter aliquots of nanoconjugate samples were diluted in 0.99 mL PBS and were measured 3 times using a clear cuvette. Data represent the mean of three measurements and polydispersity index.

For data set [8], the system named is LRP-1 transcytosis pathway. The note with it: 70-fold molar excess of P/LLL (40%).

T1 sequence (P05067 672-713 limits assumed): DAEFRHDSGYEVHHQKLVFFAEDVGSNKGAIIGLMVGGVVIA

For PMLA/LLL/AP2/rhodamine [P/LLL/AP2], in data set [1], the “optical half-life (optically measured serum clearance)” value was found to be 1.22 h. The “fluorescence intensity in AD brain” value in data set [2] was found to be 10 units. Also, the “Percentage of total plaques labeled by the reagents” value in data set [3] is 1.23%. The “Brain (other hemisphere) fluorescence” value is recorded as 2.1 in data set [4] (dose 1X) and 9.4 in data set [4] (dose 4X). For the same substance, in data set [5], the “cell association in GFAP and NEUN staining” value is recorded as “no cell association”. For the same substance, the “average area per particle” value in data set [6] is reported as 0.42±0.72 μm^2. In addition, the “Hydrodynamic diameter (volume mode)” value in data set [7] was found to be 4.45 nm. Also, the PDI entry is listed as “(0.39)” in data set [7] and 0.39 in data set [7] (listed as P/LLL/AP-2). In data set [8], the “competition by unlabeled P/LLL (40%)” value was “did not exhibit competition”.
